These results are taken from US6602854B1, “Branched multimeric Apo A-I agonist compounds” (priority 1997, dated 2003).

Where no end group is shown, it is not given here. [ ]: non-standard residue; d: D form. Aib = CC(C)(N)C(=O)O

The data set can be described thus: Circular dichroism: degree of helicity (free, SUVs, micelles, TFE). The following applies: for He (%) free: percent helicity of free, unbound peptide; for He (%) SUVs: percent helicity of peptide-SUV complexes; for He (%) TFE: percent helicity of peptide-TFE solution; for He (%) mics: percent helicity of peptide-micelle complexes. The procedure:
Far UV circular dichroism spectra were recorded between 190 and 260 nm (in 0.5 nm or 0.2 nm increments) with a AVIV62DS spectrometer (AVIV Associates, Lakewood, N.J., USA) equipped with a thermoelectric cell holder and sample changer. The instrument was calibrated with (+)-10-camphoric acid. Between one and three scans were collected for each sample, using 10 cm, 5 cm, 1 cm and 0.1 cm path length quartz Suprasil cells, respectively, for peptide concentrations of 10^−7 M to 10^−4 M. The bandwidth was fixed at 1.5 nm and the scan speed to 1 s per wavelength step. The reported data are the mean of at least 2 or 3 independent measurements.
After background substraction, spectra were converted to molar ellipticity (θ) per residue in deg. […] dmol^−1. The peptide concentration was determined by amino acid analysis and also by absorption spectrometry on a Perkin Elmer Lambda 17 UV/Visible spectrophotometer when the peptide contained a chromophore (tryptophane, dansyl, naphtylalanine).
CD spectra were obtained with free, unbound peptide (5 μM in 5 mM phosphate buffer, pH 7.4); with peptide-SUV complexes (20:1 EPC:Chol., Ri=30 and Ri=50); with peptide-micelle complexes (1-myristoyl-2-hydroxy-sn-glycero-3-phosphatidyl choline, Ri=100); and with free, unbound peptide in the presence of 2,2,2-trifluoroethanol (TFE) (5 μM peptide, 90% vol TFE).
The SUVs were obtained by dispersing the lipids (10 mM, 20:1 EPC:Chol., Avanti Polar Lipids, Ala.) in phosphate buffer (5 mM, pH 7.4) with bubbling N2 for 5 min., followed by sonication (1.5 hr.) in a bath sonicator. The homogeneity of the preparation was checked by FPLC.
The micelles were obtained by dispersing the lipid (6 mM 1-myristoyl-2-hydroxy-sn-glycero-3-phosphatidyl choline, Avanti Polar Lipids, AL) in phosphate buffer (5 mM, pH 7.4) with bubbling N2 for 5 min., followed by vortexing.
To obtain the peptide-SUV complexes, SUVs were added to the peptide (5 μM in 5 mM phosphate buffer, pH 7.4) at a phospholipid-peptide molar ratio (Ri) of 30 or 50.
To obtain the peptide-micelle complexes, micelles were added to the peptide (5 μM in 5 mM phosphate buffer, pH 7.4) at a Ri of 100.
All spectra were recorded at 37° C. The stability of peptide 4 (SEQ ID NO:4) as a function of temperature (both free in buffer and in micelles) was determined by recording spectra at a series of different temperatures.
The degree of helicity of peptide 4 (SEQ ID NO:4) as a function of concentration was also determined.
The degree of helicity of the peptides in the various conditions was determined from the mean residue ellipticity at 222 nm (Chen et al., 1974, Biochemistry 13:3350-3359) or by comparing the CD spectra obtained to reference spectra available on databases (16 helical reference spectra from Provencher & Glockner, 1981, Biochemistry 20:33-37; denatured protein reference spectra from Venyaminov et al., 1993, Anal. Biochem. 214:17-24) using the CONTIN curve-fitting algorithm version 2DP, CD-1 pack (Aug. 1982) (Provencher, 1982, Comput. Phys. Commun. 27:213-227, 229-242). Acceptable fit was determined using the statistical analysis methodology provided by the CONTIN algorithm.

As to “PVLDLFRELLNEXLEALKQKLK (PVLDLFRELLNE[Aib]LEALKQKLK) [peptide 6]”, the “He (%) free” value was found to be 57%, the “He (%) SUVs” value came out at 70%, the “He (%) TFE” value was 99% and the “He (%) mics” value amounted to 93%.

On to “199 (Ac-PVLDLFRELWEELKQKLK-NH2) [compound 199]”, for which the “He (%) free” value was 35%, the “He (%) SUVs” value turned out to be 80%, the “He (%) TFE” value worked out at 79% and the “He (%) mics” value is listed as 77%.

In the case of “162 (PVLELFENWLERLLDALQKKLK) [compound 162]”, the “He (%) free” value is given as 68%, the “He (%) SUVs” value was 81% and the “He (%) mics” value is 83%.

With “67 (VLDLFRELLNELLEALKQKLK) [compound 67]”, the “He (%) free” value is 81%, the “He (%) SUVs” value was found to be 84%, the “He (%) TFE” value is 94% and the “He (%) mics” value came out at 90%.

For “38 (PVLDLFRELLNE[Aib]LEAWKQKLK) [compound 38]”, the “He (%) free” value amounted to 25%, the “He (%) SUVs” value was 21%, the “He (%) TFE” value was determined as 49% and the “He (%) mics” value came out at 49%.

“50 (PVLDLFRELLWE[Aib]LEALKQKLK) [compound 50]”: the “He (%) free” value stood at 68%, the “He (%) SUVs” value was 89%, the “He (%) TFE” value is given as 76% and the “He (%) mics” value was determined as 84%.

In the case of “PVLDEFREKLNEALEALKQKLK [peptide 94, reference compound]”, the “He (%) free” value was determined as 18%, the “He (%) SUVs” value stood at 27%, the “He (%) TFE” value came out at 63% and the “He (%) mics” value came out at 70%.

For “99 (KLKQKLAELLENLLERFLDLVP) [compound 99]”, the “He (%) free” value stood at 72%, the “He (%) SUVs” value is reported as 80%, the “He (%) TFE” value worked out at 80% and the “He (%) mics” value is on record as 88%.

For 60 (PVLDLFRELLNELLEALKQ) [compound 60], the “He (%) free” value stood at 39%, the “He (%) SUVs” value was determined as 66%, the “He (%) TFE” value was 84% and the “He (%) mics” value is recorded as 83%.

For 55 (PLFRELLNELLEALKQKLK) [compound 55], the “He (%) free” value was 38%, the “He (%) SUVs” value is 78%, the “He (%) TFE” value was 75% and the “He (%) mics” value is reported as 72%.

As to “215 (Ac-PVLDLFRELLEEWKQKLK-NH2) [compound 215]”, the “He (%) free” value turned out to be 28%, the “He (%) SUVs” value worked out at 53%, the “He (%) TFE” value turned out to be 68% and the “He (%) mics” value was 63%.

For “66 (PVLDLFRNLLEELLEALQKKLK) [compound 66]”, the “He (%) free” value amounted to 64%, the “He (%) SUVs” value is 66%, the “He (%) TFE” value is 70% and the “He (%) mics” value is 82%.

Consider “146 (PVLELFENLLERLLDALQKKLK) [compound 146]”, for which the “He (%) free” value came to 97%, the “He (%) SUVs” value is 100%, the “He (%) TFE” value is listed as 95% and the “He (%) mics” value is reported as 100%.

In the case of “EWLKAFYEKVLEKLKELF* [peptide 238, reference compound]”, the “He (%) free” value amounted to 49%, the “He (%) SUVs” value was determined as 60%, the “He (%) TFE” value was 58% and the “He (%) mics” value worked out at 72%.

Regarding “36 (PLLELLKELLQELLEALKQKLK) [compound 36]”, the “He (%) free” value is 95%, the “He (%) TFE” value came to 95% and the “He (%) mics” value came to 100%.

“192 (Ac-PVLDLFKELLEELKQKLK-NH2) [compound 192]”: the “He (%) free” value is 36% and the “He (%) TFE” value is 56%.

For the substance “42 (PVLDEFREKLNE[Aib]WEALKQKLK) [compound 42]”, the “He (%) free” value was found to be 15%, the “He (%) SUVs” value is 27%, the “He (%) TFE” value is 76% and the “He (%) mics” value amounted to 74%.

For the substance “149 (PVLELFENLWERLLDALQKKLK) [compound 149]”, the “He (%) free” value worked out at 28%, the “He (%) TFE” value came out at 47% and the “He (%) mics” value is listed as 54%.

As to “154 (PVLELFENLLERGLDALQKKLK) [compound 154]”, the “He (%) free” value amounted to 13%, the “He (%) SUVs” value came out at 25%, the “He (%) TFE” value was 80% and the “He (%) mics” value is 76%.

For “PVLDEFREKLNERLEALKQKLK [peptide 109, reference compound]”, the “He (%) free” value came to 19%, the “He (%) SUVs” value came out at 23%, the “He (%) TFE” value came out at 58% and the “He (%) mics” value turned out to be 45%.

As for “35 (PVLDWFRELLNELLEALKQKLK) [compound 35]”, the “He (%) SUVs” value was 61% and the “He (%) mics” value was 59%.

Consider “193 (Ac-PVLDLFRELLEELKQKLK-NH2) [compound 193]”, for which the “He (%) free” value is on record as 34%, the “He (%) SUVs” value stood at 87%, the “He (%) TFE” value is reported as 87% and the “He (%) mics” value was found to be 88%.

For the substance 217 (PVLDLFRELLELLKQKLK) [compound 217], the “He (%) free” value is recorded as 52%, the “He (%) SUVs” value came to 76%, the “He (%) TFE” value is given as 70% and the “He (%) mics” value turned out to be 78%.

“37 (PVLDLFREWLNELLEALKQKLK) [compound 37]”: the “He (%) free” value was 65%, the “He (%) SUVs” value is on record as 76%, the “He (%) TFE” value was 73% and the “He (%) mics” value was 75%.

For “EWLKAFYEKVLEKLKELF [peptide 248, reference compound]”, the “He (%) free” value was 18%, the “He (%) SUVs” value is 13% and the “He (%) mics” value was 45%.

Regarding “76 (PVLDEFRELLFE[Aib]LEALKQKLK) [compound 76]”, the “He (%) free” value stood at 41%, the “He (%) TFE” value was found to be 66% and the “He (%) mics” value is recorded as 88%.

As for “160 (PVLELFENLLERLLDWLQKKLK) [compound 160]”, the “He (%) free” value is recorded as 65%, the “He (%) SUVs” value is 75%, the “He (%) TFE” value worked out at 61% and the “He (%) mics” value is recorded as 73%.

As for “DWLKAFYDKVFEKFKEFF [peptide 245, reference compound]”, the “He (%) free” value is 38%, the “He (%) SUVs” value came to 70% and the “He (%) mics” value worked out at 77%.

For “40 (PVLDLFNELLRELLEALQKKLK) [compound 40]”, the “He (%) free” value is given as 66%, the “He (%) SUVs” value was 79%, the “He (%) TFE” value was 77% and the “He (%) mics” value amounted to 84%.

In the case of “39 (PVLDLFRELLEELLKALKKKLK) [compound 39]”, the “He (%) free” value amounted to 66%, the “He (%) SUVs” value came out at 68%, the “He (%) TFE” value was 72% and the “He (%) mics” value is recorded as 69%.

On to “194 (Ac-PVLELFRELLEELKQKLK-NH2) [compound 194]”, for which the “He (%) free” value is reported as 38%, the “He (%) TFE” value came to 93% and the “He (%) mics” value is 93%.

Consider “240 (Ac-DWLKAFYDKVAEKLKEAF-NH2) [compound 240]”, for which the “He (%) free” value stood at 16%, the “He (%) SUVs” value was found to be 59%, the “He (%) TFE” value was determined as 57% and the “He (%) mics” value is 68%.

As to “91 (PVLDEFRELLNE[Aib]LEALKQKLK) [compound 91]”, the “He (%) free” value is 43%, the “He (%) TFE” value is 100% and the “He (%) mics” value turned out to be 100%.

Take “148 (PVLELFENLLERLGDALQKKLK) [compound 148]”: the “He (%) free” value is on record as 10%, the “He (%) SUVs” value is listed as 23%, the “He (%) TFE” value was 80% and the “He (%) mics” value is 76%.

As for “163 (PVLELFENLLERLWDALQKKLK) [compound 163]”, the “He (%) free” value worked out at 27%, the “He (%) TFE” value is on record as 55% and the “He (%) mics” value was 53%.
